Drawing on paper PMC11216086, “The structure of TRAF7 coiled-coil trimer provides insight into its function in zebrafish embryonic development” (Journal of Molecular Cell Biology, 2024), this text covers screen value for two variants.

The labels stand for the following.
B1: TrxA-tagged wild-type human TRAF7 CC (fragment 270–379 aa) [human] / itself (parent)
chain: GNQDTYETHLETCRFEGLKEFLQQTDDRFHEMHVALAQKDQEIAFLRSMLGKLSEKIDQLEKSLELKFDVLDENQSKLSEDLMEFRRDASMLNDELSHINARLNMGILGS

Variants of B1 are the subject of the experiment. The experiment is described as follows: SEC-MALS (self-association / trimerisation). To be noted: with itself; TrxA-tagged at the N-terminus; theoretical molecular weight of the WT trimer is 84.9 kDa.
For chain 1 L53R, the screen value amounted to 49.5 kDa.

As to chain 1 L78R, the screen value was 63.5 kDa.
